In publication PMC3969221 (2014):

Biological target: Cry1AbMod protoxin (Bacillus thuringiensis, UniProt P0A370 1-1155)
Test: ELISA

B1: Manduca sexta cadherin protein fragment (CR7–CR12) (domain or fragment)
chain: MIDFLTGQISVNTSGAIDADTPPRFHLYYTVVASDRCSTEDPADCPPDPTYWETEGNITIHITDTNNKVPQAETTKFDTVVYIYENATHLDEVVTLIASDLDRDEIYHTVSYVINYAVNPRLMNFFSVNRETGLVYVDYETQGSGEVLDRDGDEPTHRIFFNLIDNFMGEGEGNRNQNDTEVLVILLDVNDNAPELPPPSELSWTISENLKQGVRLEPHIFAPDRDEPDTDNSRVGYEILNLSTERDIEVPELFVMIQIANVTGELETAMDLKGYWGTYAIHIRAFDHGIPQMSMNETYELIIHPFNYYAPEFVFPTNDAVIRLARERAVINGVLATVNGEFLERISATDPDGLHAGVVTFQVVGDEESQRYFQVVNDGENLGSLRLLQAVPEEIREFRITIRATDQGTDPGPLSTDMTFRVVFVPTQGEPRFASSEHAVAFIEKSAGMEESHQLPLAQDIKNHLCEDDCHSIYYRIIDGNSEGHFGLDPVRNRLFLKKELIREQSASHTLQVAASNSPDGGIPLPASILTVTVTVREADPRPVFVRELYTAGISTADSIGRELLRLHATQSEGSAITYAIDYDTMVVDPSLEAVRQSAFVLNAQTGVLTLNIQPTATMHGLFKFEVTATDTAGAQDRTDVTVYVVSSQNRVYFVFVNTLQQVEDNRDFIA
B1 gave a Kd of 6.8 nM.
